This data set concerns the molecule itself. Put plainly: crystal structure; un-tagged MmATD alone; sitting-drop vapor diffusion, reservoir 0.1 M Bicine (pH 8.0) and 15% PEG1500; 1.86 Å; two monomers per asymmetric unit.

B1: Animalia-specific tRNA deacylase from Mus musculus (enzyme)
chain: MADGGRVAQARALLQQCLHARLQVRPADGDAAAQWVEIRRGLVIYVCFFKGADTDLLPKMVNTLLNVKLSETETGKHVSILDLPGDVLIIPQATLGGRVKGRSMQYHSNSGKEEGSELYSQFVSLCEKAVANNTKSVEAGVAVAHGTYGNRQVLKLDTNGPYTHLIEF
notes: ATD (Animalia-specific tRNA deacylase, annotated in databases as probable DTD2) from Mus musculus; un-tagged protein used for crystallisation; gene PCR-amplified from cDNA into pET-28b; Homodimer in the crystal (two monomers per asymmetric unit, 325 residues modelled); also called MmATD; ATD; source: E. coli Rosetta(DE3), purified (cation exchange chromatography, SEC)
In the case of B1, the binding result was “binds”.

These data come from article PMC5802732, “A chiral selectivity relaxed paralog of DTD for proofreading tRNA mischarging in Animalia” (Nature Communications, 2018).
